B1: TPR t1 (parent)
chain: GACCAAUCUGCCCUCAGAGCUCGAGAACAUCUUCGGAUGCAGAGGAGGCAGGCUUCGGUGGCGCGAUAGCGCCAACGUCCUCAACCUCCAAUGCAUCCCACCACAUGAUGAUGCCUGAAGAGCCUUGGUUUUUUG

Variants of: B1
Assay: polymerase ribozyme fitness, log enrichment relative to wild type (log ratio); higher = more active; in vitro selection for triplet polymerase activity
Method in brief: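 The heterodimeric triplet polymerase ribozyme's subunits were each mutagenized into PCR-built libraries and transcribed. Every library was selected once, in triplicate, by annealing with a biotinylated primer, the partner subunit and triplets, incubating frozen at −7 °C, gel-excising extended constructs, capturing on streptavidin beads and running RT-PCR. Input and output libraries were Illumina-sequenced, with genotypes kept only at ≥10 input reads and ≥1 read per output. Fitness, from inverse-variance-weighted replicate averages, is the base-2 logarithm of genotype enrichment over wild-type enrichment.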

In order of rising “polymerase ribozyme fitness (log ratio)” value:
1. C98U A105G C114G C115A G135U  -7.98
2. C98A C115U C123U  -7.67
3. G93U C101A G113U G117A  -6.98
4. U92G C101U A103U U109A  -6.74
5. C97G C102G A111G  -6.52
6. C94A U96A  -6.34
7. U96C C102U G110A G122U  -6.13
8. C94A G110C G120C  -6.12
9. A95U U109A U130G  -6.07
10. U92C C99G G113U  -6.05
11. C94A U109A  -5.96
12. C97A A111G  -5.96
13. C98A A100U U112A  -5.91
14. U92A U130G U131G  -5.8
15. C97A A111U  -5.77
16. C98G C124U  -5.51
17. C97G U112G  -5.5
18. U96A C99A U106G  -5.31
19. C97G A103U  -5.1
20. U92A G117U  -4.95
21. C97A C102U  -4.94
22. U96G A108G G117A  -4.91
23. U96C C102U G113C  -4.89
24. U92A G128U  -4.84
25. C94A A105C  -4.8
26. A91U C102U  -4.75
27. A95G C97U A105U G122U  -4.71
28. G93A C99U  -4.67
29. C94A C102U  -4.66
30. C98A G120U  -4.6
31. C98G U116A C124G  -4.52
32. C94U A108U C124A  -4.49
33. A95U U96A C101G U106C C124A  -4.41
34. C97G C123A  -4.41
35. C94A G117C  -4.31
36. U92A U129A  -4.29
37. U92A U129G  -4.28
38. A95U G117C  -4.23
39. G93A A95U C102A  -4.21
40. U96G G110U G120U U132C  -4.08
41. C98U A118C  -4.03
42. U96C G110C  -4
43. C97A U131A  -3.97
44. C94U A100G G120U  -3.95
45. G93C C99U  -3.93
46. C94G U116C A118C  -3.89
47. U92A C115U  -3.78
48. C94U C99U U125A  -3.61
49. U92A A111G U129C U132C  -3.54
50. U92A G113C  -3.49
51. C94G C114U G128C  -3.47
52. U92C G128C  -3.41
53. A91G G113U  -3.39
54. A95C C97U C101G  -3.36
55. C97U C114G  -3.36
56. A91U G128A  -3.34
57. C97G C104U  -3.29
58. C94A A105U  -3.27
59. A91U G127U  -3.19
60. C97A C123G  -3.19
61. U92A C114U  -3.08
62. C97U C114U  -2.99
63. C98U G117A  -2.99
64. A95U G127A  -2.95
65. U92A G120U  -2.93
66. G93A C114G  -2.93
67. G93U C104A  -2.9
68. A95U U106G G120U  -2.83
69. U92A  -2.8
70. U92A G113A  -2.8
71. U96G G110U  -2.73
72. C97U G113C  -2.71
73. C94U C102U U126C  -2.66
74. C98U G110U  -2.66
75. G93U U96A  -2.6
76. U96G G113C  -2.59
77. C94A C114U  -2.56
78. G93U C102A G120A  -2.52
79. C94G G117A  -2.51
80. A95C G110A  -2.49
81. A91U U96A  -2.42
82. C94A G128A  -2.41
83. U92G  -2.38
84. C94A A95C U131G  -2.37
85. C94A G127C  -2.37
86. A91G U129A  -2.34
87. C97U C104A  -2.32
88. C94U G113C  -2.26
89. C98U C104U U112A  -2.26
90. C94G G110A  -2.23
91. U92A G120A  -2.17
92. A95C U116G  -2.17
93. A95C G128C  -2.12
94. G93C C101A C104U  -2.05
95. C98U C115A  -2
96. U96A A111G  -1.84
97. C97U C114A  -1.76
98. C98U A121C U125A U129A  -1.75
99. G93A U116C  -1.68
100. U96C G128U  -1.67
101. G93C U130G  -1.51
102. C97U G127A  -1.48
103. A95G G110U U130G U132A  -1.43
104. C94G U130A G135U  -1.4
105. A91G C115U  -1.36
106. C94U U125G  -1.32
107. G93C U131G  -1.28
108. C98U A119U  -1.28
109. C94U U129A  -1.25
110. G93U C94U  -1.22
111. U96A U131C  -1.19
112. C94U G110A  -1.18
113. G93U U133C  -1.17
114. U96A A119U  -1.13
115. G93C G117A  -1.09
116. C97U G122A  -1.08
117. G93C C124U U125C  -1.05
118. G93C U131A  -1.05
119. A95U U130C  -0.986
120. A91U G120A  -0.951
121. G93C G113A C124G  -0.942
122. A95C  -0.933
123. U92C  -0.847
124. C97U U133A  -0.824
125. C94U U125A  -0.818
126. A95U  -0.816
127. U92C C101U C104U  -0.793
128. G93C G122A  -0.79
129. C94G C115A  -0.789
130. G93U G120C  -0.763
131. G93A U132A G135U  -0.722
132. G93U G135C  -0.696
133. U96A U133G  -0.674
134. C94G A100U G120A  -0.669
135. G93A G113A  -0.607
136. U92G A121G  -0.555
137. A91G C104U A118C C123G C124A U126A  -0.422
138. A95G U125A  -0.382
139. U92A U112C A121C  -0.365
140. C94U U131A  -0.362
141. G93U A111G  -0.352
142. U96G G120U  -0.269
143. U96G G120A  -0.241
144. C94A C124A U125C U131A  -0.191
145. G93A C104U  -0.0844
146. U96A C123U  -0.01
147. U96G C114A  0.0255
148. C94A U112G C124G  0.054
149. C94U G117U  0.0636
150. A95G  0.119
151. G93U A121U U131G  0.33
152. A91U C123G  0.354
153. G93C G120A U130C  0.452
154. U96G G117A A119G  0.491
155. U96A A121G  0.527
156. G93U C123U  0.528
157. C97U U112A  0.716
158. C97U G120U C124A  0.793
159. A95G U112A A119U  0.842
160. U96A C104U C124U  0.864
161. G93A U112A  0.918
162. U96A C124U  1.03
163. U96A A121C  1.1
164. C97U U112C A121C  1.3
165. C94U U112A C124G  1.39
166. C97U A121U  1.5
167. C94U A121G  1.59
